# B1: xPSM-A9 (ssRNA)
# RNA: GGGAGGACGAUGCGGACCGAAAAAGACCUGACUUCUAUACUAAGUCUACGUUCCCAGACGACUCGCCCGA
# modifications: 2'-F all pyrimidines; purines 2'-OH
# B2: xPSM-A10 (62-A10) (ssRNA)
# RNA: GGGAGGACGAUGCGGAUCAGCCAUGUUUACGUCACUCCUUGUCAAUCCUCAUCGGCAGACGACUCGCCCGA
# modifications: 2'-F all pyrimidines; purines 2'-OH
# B3: xPSM1.A9-2 (ssRNA)
# RNA: GGGAGGACGAUGCGGACCGAAAAAGACCUGACUUCUAUACUAAGUCUACGUUCCCAGACG
# modifications: 2'-F all pyrimidines; purines 2'-OH
# B4: xPSM1.A9-1 (ssRNA)
# RNA: GGGAGGACGAUGCGGACCGAAAAAGACCUGACUUCUAUACUAAGUCUACGUUCCCAGACGACUCG
# modifications: 2'-F all pyrimidines; purines 2'-OH
# B5: xPSM1.A9-4 (ssRNA)
# RNA: GGGAGGACGAUGCGGACCGAAAAAGACCUGACUUCUAUACUAAGUCUACG
# modifications: 2'-F all pyrimidines; purines 2'-OH
# B6: xPSM1.A9-6 (ssRNA)
# RNA: GGGAGGACGAUGCGGACCGAAAAAGACCUGACUUCUAUAC
# modifications: 2'-F all pyrimidines; purines 2'-OH
# B7: xPSM1.A10-6 (ssRNA)
# RNA: GGGAGGACGAUGCGGAUCAGCCAUGUUUACGUCACUCCUUG
# modifications: 2'-F all pyrimidines; purines 2'-OH
# B8: xPSM1.A10-1 (ssRNA)
# RNA: GGGAGGACGAUGCGGAUCAGCCAUGUUUACGUCACUCCUUGUCAAUCCUCAUCGGCAGACGACUCG
# modifications: 2'-F all pyrimidines; purines 2'-OH
# B9: xPSM1.A9-5 (ssRNA)
# RNA: GGGAGGACGAUGCGGACCGAAAAAGACCUGACUUCUAUACUAAGU
# modifications: 2'-F all pyrimidines; purines 2'-OH
# B10: xPSM1.A10-3 (ssRNA)
# RNA: GGGAGGACGAUGCGGAUCAGCCAUGUUUACGUCACUCCUUGUCAAUCCUCAUCGGC
# modifications: 2'-F all pyrimidines; purines 2'-OH
# B11: xPSM1.A10-5 (ssRNA)
# RNA: GGGAGGACGAUGCGGAUCAGCCAUGUUUACGUCACUCCUUGUCAAU
# modifications: 2'-F all pyrimidines; purines 2'-OH
# B12: xPSM1.A10-4 (ssRNA)
# RNA: GGGAGGACGAUGCGGAUCAGCCAUGUUUACGUCACUCCUUGUCAAUCCUCA
# modifications: 2'-F all pyrimidines; purines 2'-OH
# B13: xPSM1.A9-3 (ssRNA)
# RNA: GGGAGGACGAUGCGGACCGAAAAAGACCUGACUUCUAUACUAAGUCUACGUUCCC
# modifications: 2'-F all pyrimidines; purines 2'-OH
# Biological target: T1, xPSM (extracellular portion of PSMA) (Homo sapiens (LNCaP cDNA), UniProt Q04609 Q04609:44-750)
# T1 sequence (Q04609 44-750, one chain of several): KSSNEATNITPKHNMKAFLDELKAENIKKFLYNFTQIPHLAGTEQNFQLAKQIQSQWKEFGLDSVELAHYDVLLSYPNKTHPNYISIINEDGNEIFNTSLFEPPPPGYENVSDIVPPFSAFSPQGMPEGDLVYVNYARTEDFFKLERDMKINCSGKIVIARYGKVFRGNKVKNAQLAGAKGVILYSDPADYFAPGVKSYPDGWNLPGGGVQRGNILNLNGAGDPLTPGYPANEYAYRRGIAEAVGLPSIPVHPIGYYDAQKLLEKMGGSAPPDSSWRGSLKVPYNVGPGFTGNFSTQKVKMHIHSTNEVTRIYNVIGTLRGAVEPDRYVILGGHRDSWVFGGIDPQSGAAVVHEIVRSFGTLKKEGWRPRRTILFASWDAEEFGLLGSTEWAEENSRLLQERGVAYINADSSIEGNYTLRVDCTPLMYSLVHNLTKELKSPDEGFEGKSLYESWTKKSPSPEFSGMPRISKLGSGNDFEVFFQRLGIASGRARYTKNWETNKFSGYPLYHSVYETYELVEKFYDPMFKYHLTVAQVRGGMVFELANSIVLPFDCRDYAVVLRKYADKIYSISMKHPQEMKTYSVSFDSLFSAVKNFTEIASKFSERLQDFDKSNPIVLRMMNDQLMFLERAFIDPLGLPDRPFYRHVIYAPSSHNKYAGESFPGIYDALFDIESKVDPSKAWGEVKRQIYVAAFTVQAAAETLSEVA
# Experiment: inhibition; noncompetitive NAALADase inhibition, 37 C
# Conditions: tags: S-tag fusion released by enterokinase; baculovirus Sf-9 secreted
# Experimental: (§1) NAAG hydrolysis was performed essentially as described in Robinson et al. (1987) J Biol Chem. 262:14498-506. LNCaP cell extracts were prepared by sonication in the presence of 50 mM Tris, pH 7.4, 0.5% Triton-X-100. Cell lysate or purified xPSM was incubated in the presence of the radiolabeled substrate N-acetyl-L-aspartyl-L-[3,4-³H]glutamate (NEN Life Science Products, Boston, Mass.) at 37° C. for 10-15 minutes. The reaction was stopped with an equal volume of ice-cold 100 mM sodium phosphate, 2 mM EDTA. Products were separated from intact substrate using anion exchange chromatography and quantitated by scintillation counting. […] In all cases less than 20% of substrate was cleaved.
row,Binder,Ki
1,B1,1.1 nM

# Biological target: T1, xPSM (extracellular portion of PSMA)
# Experiment: inhibition; competitive NAALADase inhibition, 37 C
# Conditions: tags: S-tag fusion released by enterokinase; baculovirus Sf-9 secreted
# Experimental: as §1
row,Binder,Ki
1,B2,11.9 nM

# Biological target: T1, xPSM (extracellular portion of PSMA)
# Experiment: inhibition; NAALADase assay, 8 nM substrate, 37 C
# Conditions: tags: S-tag fusion released by enterokinase; baculovirus Sf-9 secreted
# Experimental: as §1
row,Binder,IC50
1,B3,300 nM
2,B4,8 nM
3,B5,> 300 nM
4,B6,> 300 nM
5,B7,> 700 nM
6,B8,40 nM
7,B9,> 300 nM
8,B10,50 nM
9,B1,5 nM
10,B11,> 700 nM
11,B12,> 700 nM
12,B2,80 nM
13,B13,> 300 nM

# Biological target: T1, xPSM (extracellular portion of PSMA)
# Experiment: inhibition; competitive NAALADase inhibition, +/-7.8 nM, 37 C
# Conditions: tags: S-tag fusion released by enterokinase; baculovirus Sf-9 secreted
# Experimental: as §1
row,Binder,Ki
1,B10,20.5 nM
